# Reference: the emibetuzumab library of Makowski et al. (2022)
# B1: VH:VL chains; a variant is named by its letters at X, in order (parent)
# chain 1: QVQLVQSGAEVKKPGASVKVSCKASGYTFTDYXMHWVRQAPGQGLEWMGXVNPNXXXTTYNQKFEGRVTMTTDTSTSTAYMELRSLRSDDTAVYYCARXNXLDXWGQGTTVTVSS
# chain 2: DIQMTQSPSSLSASVGDRVTITCSVSSSVSSIYLHWYQQKPGKAPKLLIYSTSNLASGVPSRFSGSGSGTDFTLTISSLQPEDFATYYCQVYSGYPLTFGGGTKVEIK
# Variants of: B1
# Assay: yeast display scFab, FACS + sequencing
# In short: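 For the non-specific binding call, a heavy-chain CDR mutant scFab library on the yeast surface was FACS-sorted and samples from two replicates were deep sequenced. Cells were labelled with anti-Myc and either biotinylated ovalbumin (260 μg/mL in PBSB, 3 h, room temperature) or soluble membrane proteins (130 μg/mL, 20 min on ice), with gates on the top 25% and bottom 10% of binders. With membrane protein and ovalbumin samples pooled, a sequence in ≥3 of 4 positive samples and no negatives was scored positive, and the converse rule scored negatives.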
row,Variant,non-specific binding call
1,VEAGDALV,no binding
2,DEGGGAGS,no binding
3,YEGGGDGD,no binding
4,YEGGGDGA,no binding
5,VEGGGFSV,no binding
6,AEEKGSGD,no binding
7,SEEGTDGV,no binding
8,SEARSDWA,no binding
9,SEARSDWF,no binding
10,SEARSDWV,no binding
11,SEARSDWD,no binding
12,DEGGGDGA,no binding
13,SEGGDAWV,no binding
14,DEEASSWA,no binding
15,VEAGDDGA,no binding
16,VEGGADVF,no binding
17,VEEEGSVD,no binding
18,VEEEGSVV,no binding
19,VEEEGSVS,no binding
20,AEAGDAVV,no binding
21,SEEASAVY,no binding
22,SEARSDSF,no binding
23,SEARSDSV,no binding
24,DEETNSGA,binds
25,SEARSYAV,no binding

row,Variant,non-specific binding call
1,DEGGGSSA,no binding
2,VEGEDAAA,no binding
3,YEGGADVD,no binding
4,YEGGADVF,no binding
5,YEGGADVV,no binding
6,YEGGADVA,no binding
7,AATTSFVV,no binding
8,DEGAGDGF,binds
9,SEARSDVV,no binding
10,SEARSDVY,no binding
11,SEARSDVF,no binding
12,SEARSDVD,no binding
13,YEERSDAF,no binding
14,VEAGDAAV,no binding
15,VEAGDAAA,no binding
16,VEARGDWV,no binding
17,YATTSFSF,no binding
18,VEGGGDGV,no binding
19,VEGGGDGA,no binding
20,VEGGGDGD,no binding
21,VEERDAGD,no binding
22,FEAESYGV,binds
23,DEAGTAVA,no binding
24,VEEEAFAV,no binding
25,VEEEGSWV,no binding

row,Variant,non-specific binding call
1,SEARNDGA,no binding
2,SEEEGASV,no binding
3,VEAGDAVA,no binding
4,SEARSAVV,no binding
5,SEARSAVS,no binding
6,SEARSAVA,no binding
7,SEARSAVY,no binding
8,VEGAASWV,no binding
9,VEGAASWF,no binding
10,VEGGGAVV,no binding
11,FEETDASA,binds
12,VEGGGDVY,no binding
13,VEGGGDVA,no binding
14,VEGGGDVD,no binding
15,VEGGGDVV,no binding
16,SATTDSVD,no binding
17,VEAGDDWV,no binding
18,FEAGDDGV,no binding
19,SEGGDAGD,no binding
20,AEAGADVV,no binding
21,FEARDYWD,binds
22,DEGGDDAA,no binding
23,VEGGGAWA,no binding
24,VEEEGSAD,no binding
25,VEEEGSAV,no binding

row,Variant,non-specific binding call
1,AATTDSVD,no binding
2,VEGEDAGA,no binding
3,YEAGTAVA,no binding
4,SEARSDGF,no binding
5,SEARSDGS,no binding
6,SEARSDGY,no binding
7,SEEGSDAS,no binding
8,SEEASSSA,no binding
9,YEEGTDWY,no binding
10,FEERNSLD,binds
11,YEGGGDWF,no binding
12,YEGGGDWV,no binding
13,VEEEGDWV,no binding
14,VEEEGDWD,no binding
15,FEETDAGD,binds
16,VEGGGAAA,no binding
17,VEGGGAAS,no binding
18,DATTDSVD,no binding
19,SEEEGDAV,no binding
20,VEGGGSVD,no binding
21,SEARSAWA,no binding
22,SEARSAWS,no binding
23,VEAGSDGV,no binding
24,VATTDSVD,no binding
25,SEEEGSGV,no binding

row,Variant,non-specific binding call
1,SEGADAVA chain 1 G106S,no binding
2,YEGGGSSA,no binding
3,YEERTAAA,binds
4,DEAGDAVV,no binding
5,VEAGDSSS,no binding
6,VEAGDSSA,no binding
7,FATTDSVD,no binding
8,SEEGTDWY,no binding
9,SEEGTDWD,no binding
10,VEEAAAGV,no binding
11,SEEEGAGD,no binding
12,VEEEGDSA,no binding
13,VEAGDAGS,no binding
14,VEAGDAGD,no binding
15,SEARSSGV,no binding
16,SEARSSGY,no binding
17,SEARSSGF,no binding
18,YEGGGDLV,no binding
19,DEARGAGD,no binding
20,FEEEGSAA,no binding
21,SEARSSSD,no binding
22,SEARSSSV,no binding
23,SEARSSSY,no binding
24,SEARSSSF,no binding
25,SEARSSSA,no binding

row,Variant,non-specific binding call
1,SEAGDAVV,no binding
2,SEARSDLA,no binding
3,SEARSDLY,no binding
4,FEATASWS,binds
5,VEAGDDSA,no binding
6,DEGGDAGD,no binding
7,AEEEGSAA,no binding
8,AEERASAF,binds
9,VEGGGSSV,no binding
10,VEGGGSSS,no binding
11,VEGGGSSA,no binding
12,VEGGGAGV,no binding
13,VEEEGDVA,no binding
14,VEEEGDVY,no binding
15,AATTDSSS,no binding
16,VEERDAVA,no binding
17,VEARGDGA,no binding
18,VEGGGDWA,no binding
19,VEGGGDWS,no binding
20,DEAKAAVD,binds
21,VEEEDYSS,binds
22,VEEASSWA,no binding
23,VEETSSLD,no binding
24,SEARSYLV,no binding
25,VEARNDWA chain 1 M81I,binds

row,Variant,non-specific binding call
1,AEARAAGS chain 1 V37I,binds
2,DEEEGSAA,no binding
3,VEEEGDGA,no binding
4,VEEEGDGV,no binding
5,VEGGGDAA,no binding
6,VEEEGDAA,no binding
7,VEEEGDAV,no binding
8,SEGADAGD,no binding
9,YEGAASWF,no binding
10,SEEEGSAA,no binding
11,VEAGTAVA,no binding
12,VEEEGALD,no binding
13,VEAGDDAV,no binding
14,VEAGDDAA,no binding
15,SEEASDGA,no binding
16,FEATAAGS,binds
17,FEAGDSGA,no binding
18,SEARSAGV,no binding
19,VEGAADVD,no binding
20,SEARSDAD,no binding
21,SEARSDAA,no binding
22,SEARSDAV,no binding
23,SEARSDAS,no binding
24,SEARSFGV,no binding
25,YEGGGSAV,no binding

row,Variant,non-specific binding call
1,SEEEGDWV,no binding
2,VEGGGYGV,no binding
3,SEARNAGD,no binding
4,VEARNAGA,no binding
5,AEARSDGA,no binding
6,YEGGGDVA,no binding
7,YEGGGDVY,no binding
8,VEAGDSWV,no binding
9,SEARSSWS,no binding
10,SEARSSWV,no binding
11,DEAGGDGY,no binding
12,SEARSALA,no binding
13,SEARSALV,no binding
14,SEARSALD,no binding
15,VEERDDWF,no binding
16,VEGGGFAY,no binding
17,AEERDSVV,no binding
18,SEARSAAV,no binding
19,SEEGTAGA,no binding
20,SEEGTAGD,no binding
21,SEARSSLV,no binding
22,SEARSSLA,no binding
23,SEARSSAS,no binding
24,SEARSSAD,no binding
25,VEGGGSGV,no binding

row,Variant,non-specific binding call
1,YEARNAGA,no binding
2,FEEGTDWY,no binding
3,YEGGGFSV,no binding
4,VEAGDDVY,no binding
5,VEAGDDVV,no binding
6,DEARNAGA,no binding
7,SEEEGDVA,no binding
8,VEAGDSLD,no binding
9,VEGAAAGS,no binding
10,DEGEDAGA,no binding
11,VEEEGSGA,no binding
12,VEEEGSGV,no binding
13,DEARSDGA,no binding
14,VEGADAVA chain 1 G106S,no binding
15,VEEEGAGV,no binding
16,VEEEGAGD,no binding
17,SEARSYVV,no binding
